Source: patent publication US20240052061A1

Target: T1, human ecto-nucleoside triphosphate diphosphohydrolase-3 (NTPDase3) (human) (UniProt O75355)
T1 sequence (looked up): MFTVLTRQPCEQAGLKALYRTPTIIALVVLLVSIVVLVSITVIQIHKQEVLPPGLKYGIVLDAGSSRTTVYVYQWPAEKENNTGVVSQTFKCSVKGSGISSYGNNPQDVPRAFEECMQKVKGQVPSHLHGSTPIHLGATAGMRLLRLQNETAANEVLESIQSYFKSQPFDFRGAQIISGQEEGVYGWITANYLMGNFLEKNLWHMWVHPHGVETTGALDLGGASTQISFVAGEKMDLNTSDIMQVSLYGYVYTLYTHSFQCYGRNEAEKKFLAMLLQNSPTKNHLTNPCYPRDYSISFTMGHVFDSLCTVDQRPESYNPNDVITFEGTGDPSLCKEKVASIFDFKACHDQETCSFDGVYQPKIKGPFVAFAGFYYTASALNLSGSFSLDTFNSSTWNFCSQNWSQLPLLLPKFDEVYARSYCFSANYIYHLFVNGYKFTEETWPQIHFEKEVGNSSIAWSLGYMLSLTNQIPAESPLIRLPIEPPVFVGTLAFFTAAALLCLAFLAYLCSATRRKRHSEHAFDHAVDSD
Test: cell-based or functional assay

- ADCC EC50 (µg/mL), NFAT luciferase reporter Jurkat/hCD16a-158V: 0.047 µg/mL
- ADCC fold increase in relation to parental clone at 1 µg/mL: 1.5 fold
- CDC EC50: 0.867 µg/mL
- Enzyme Activity Inhibition Capacity: % of Maximal Inhibition: 15%
B1: 8E1 hIgG1 (antibody, V domains shown)
VH: EQQLLESGGGLVQPGGSLRLSCAVSGFSLSSYAMGWVRQAPGKGLEFIGIISYSGNTYYASWAKGRFTISKDSSKNTVYLQMNSLRAEDTAVYFCARARYGGYSTNSYYLNIWGPGTLVTVSS
VL: DVQMTQSPSTLSASVGDRVTITCQASENIYRVLAWYQQKPGKRPKLLIYGASNLESGVPSRFSGSGSGTEYTLTISSLQPDDFATYYCQGVVYNSDDSAFGGGTKVEIK
- CDC % of Maximal Cytotoxicity: 25%
- CDC: fold increase in the maximal CDC cytotoxicity over the parental 8E1 Hu/Ra chimeric clone: 2 fold
